Assay [1] concerns the target Neurotoxin heavy chain (H-chain) (Clostridium botulinum, UniProt P0DPI0 449-1296). The assay is described as follows: ELISA, IgG on immobilised H-chain.
The target in assay [2] is neuronal cell binding domain of the heavy chain C-terminal end (Hc, E. coli recombinant protein) (Clostridium botulinum, UniProt P0DPI0 871-1296). The assay can be described thus: immunoblotting of Hc after SDS-PAGE (denatured antigen).
Assay [3] deals with Neurotoxin light chain (L-chain) (Clostridium botulinum, UniProt P0DPI0 2-448). The assay is described as follows: ELISA, IgG on immobilised L-chain.

B1: BT-175 IgG type antibody (antibody, V domains shown)
VH: QITLKESGPTLVKPTQTLTLTCTFSGFSLRTSGVGVGWIRQPPGKAPEWLALIYWDGDKRFSPSLKSRLTINKDISKNQVVLTLTNLDPVDTGTYYCAHSFYHGSQSPGWFDPWGQGTLVTVSS
VL: QSVLTQPPSVSAAPGQKVTISCSGSSSNIGNNYVSWYQQLPGTAPKLLIYDNNKRPSGIPDRFSGSKSGTSATLGITGLQTGDEADYYCGTWDSSLSAVFGGGTKLTVLG
In the case of B1, the binding result is listed as “no binding (tested: 1 µg/ml)” in assay [1] and “no binding (tested: 50 µg/ml)” in assay [2].

B2: NT-539 IgG type antibody (antibody, V domains shown)
VH: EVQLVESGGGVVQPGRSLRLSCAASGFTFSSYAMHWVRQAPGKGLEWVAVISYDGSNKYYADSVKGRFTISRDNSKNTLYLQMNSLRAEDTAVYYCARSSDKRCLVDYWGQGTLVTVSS
VL: DIQMTQSPSAVSASLGDRVTITCRASQGINPFLAWFQQKPGKVPERLIYTASRLQSGVPSRFSGSGTGTEFNLTISSLHPEDFATYYCLQHKHYPWTFGQGTKVERK
As for B2, the binding result in assay [3] is reported as “no binding (tested: 10 µg/ml)”; in assay [2] it was “no binding (tested: 50 µg/ml)”.

B3: NT-221 IgG type antibody (antibody, V domains shown)
VH: EVQLVESGPTLVKPTQTLTLTCTFSGFSLRTSGVAVGWIRQPPGKALEWLALIYWDDDKRYSPSLKSRLTITKDTSKNQVVLTMTNMDPVDTATYYCAHNTGTDLYFDWAFDYWGQGTLVTVSS
VL: QSVLTQPPSVSGAPGQRVTISCTGSSSNIGAGYDVHWYQQLPGTAPKLLIYGNSNRPSGVPDRFSGSKSGTSASLAITGLQAEDEADYYCQSYDSSLSGSVFGGGTKLTVLG
B3: the results for the binding result in assay [1], in assay [3] and in assay [2] were “no binding (tested: 1 µg/ml)”, “no binding (tested: 1 µg/ml)” and “no binding (tested: 50 µg/ml)”, respectively.

B4: BT-015 IgG type antibody (antibody, V domains shown)
VH: QVQLQQSGAEVKKPGASVKVACKASRYNFSAYYMHWVRQAPGQGPEWMGWINPHSGVTTYAQKFQGRVTMTRDTSIGTAYMELSRLRSDDTALYYCARGFGSSCSDTSCSFSGLDVWGQGTTVTVSS
VL: QSALTQPASVSGSPGQSITISCTGTSSDVGGYDYVSWYQQHPGEAPKLLIYDVTNRPSGVSSRFSGSKSGNTASLTISGLQPEDEADYYCTSYTSSVTYVFGSGTTLTVLS
Take B4: the binding result in assay [3] is reported as “no binding (tested: 1 µg/ml)”; in assay [2] it was “no binding (tested: 50 µg/ml)”.

B5: NT-320 IgG type antibody (antibody, V domains shown)
VH: EVQLVESGGGVVQPGKSLRLSCAASGFTFSSYGMHWVRQAPGKGLEWVAVISYPGTNEYYTDSVKGRFTISRDNSKNTLYLQMNSLRAEDTAVYYCARGDIHSGYSFGGGDYGLDVWGQGTTVTVSS
VL: DIQMTQSPSTLSASVGDRVTITCRASQSISGWLAWYQQKPGKAPKLLMYKASSLESGVPSRFSGSGSGTEFTLTISSLQPDDFATYYCQQYNNFPWTFGQGTKVEFK
In the case of B5, in assay [2], the binding result is “no binding (tested: 50 µg/ml)”.
